In the domain aggregation screens of Martell et al. (2025):

assay: soluble fraction after stress (log2 fold change); higher = more stays soluble; pooled small domains, quantitative proteomics; settings: stress: 50 degC
How it was run: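 Each library was heated to 50°C as a stress step. The libraries, made up of small protein domains, were pooled and analysed at high throughput by quantitative proteomics. The reported value is the base-two logarithm of the fold change in each protein's soluble amount after stress, taken as a measure of aggregation propensity. The higher the value, the more protein stays in solution.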

Sequence | soluble fraction (log2)
HMRTDQYHYLAWKQVADELGIPFDEQVNERLRGVSRMASFDIILERYDGTMSDEEKIHWTDKKNEIYKSM | -0.948
HMRTLKDSTEYLIRSMLLRGEMKVGEIYSANALAKELNISNSPVREAMMSLVDRGLLENVRNRGFRVV | -1.44
HMGYDSYDADTIPKLKIGSIVEHPKFGEGSIISKAGAEVTIAFKIKGVKKINLEYTSIKVLK | -0.935
HMDPPQEVWDLTRSYLDSMNRPVHGHKSPQETYLRQVKSHRLPATALWDYFMAQRFHAVHATSESAA | -0.0648
HMEIALNDKQILLFSNKLVHEPSFASKYSKVGESYDDFAIRISENLTIPDKVQEYLPYLEKVGFNI | -0.00852
HMRRVRRTRRLLQDGLLGLMQHKAVADISVKELAEAADVARATVYVHFKDPADVLHQLEQGLY | -0.0324
HMDKVEQLMQNPVIQEKMSEGDRELLRNASLVVLGRLEDDGSIIQRFVELFGEEAYERLKSELM | 0.259
HMAALKVAVLTVSDTRTQETDTSGAFLEGALREAGHEIADRQIVIDDVYQLRAIVSQWIADPEVEVILT | -0.217
HMTLKVQLSEISKMVSLSYIAKKYFNKSQSWLSQRINGNTIHNKPAKFTSEELATLQFALKDIGNILNSTV | -2.8
HMFERISELLTDEELAVYKRGRNANASSVPKHADIADYRRATGVEALFGYLYIKGEIDRINQLFELA | -0.23
HMTIATLGERIRKLRKERGLTLAELAGDKLSKGMLSLIENNRAKPSMESLEYIAKRLGVEPAELLE | 0.176
HMGGLLSVIQKKAINNVKDRYSENAIKSMTKVQLHDLIKAETSRLLDPANAKETPEYQAFLEE | 0.0926
HMQMEISQRIKLERQTLKWTQEELADKIFVSKRTISNWETGRTVPDIESVLRLAKVFHVSLEDLLL | -4.57
HMEWVVVPDVRRQLLPEAQRRVNKARLRLEVAGGWPAEPLLAMVVDQKPGPETRVPLNSIVVVVVRNLP | -0.0473
HMPQLEDLEPLDSSGMVRRDGPHLVLAVGRHRGRHLEEVRDSDPSYLHWLLSPKGIEDIQAKEDIKTYLNL | 0.0519
HMLKKGDQVYIISGKDKGKLGVVSQIVSEERILVDGINLAKKHVKPNPNKNETGGVVEKEMPIHASNVMI | -0.0911
HMSKQKRIKYFLSILNIKSIKQFRKKDLDYFYQKRFIEIQKSSKDKKLVSNQLIELNAAKEYLDEIDFEN | -1.93
HMARSVAEFVERGRSGGSLERPKLQRMLEYIQDRPVDFVIVHKIDRLARNRADDAAITKTIRGAGAYLVST | -0.0402
HMEAKSSTKALLDVVLGRNGVSTANVAKSLNISVQNASTRLKKLSSEGVIMRSEVSSPTGGIEFIYS | -0.0504
HMKSDEGEIKKIVEEIISKNASVVEDYKKGKEVALQFLVGQGMKATKGSANPELLKKIILENI | 0.506
HMSRAARLALDALPDEWAQFAESRGLAGSAMAETWETFRDYWQAQPGQKGVKADWAATWRNWVRRETQNRG | -0.167
HMKVRDTQYIIEAAISKNVIRKSKNIYYYGTDIIGRSLEDAIASLNDKKNQDIKMTILQEIES | -0.493
HMDQNVSVPKLAGLQVEEANAILKSKGLHIEIIDSIYQKDAVPGAIIEQVPEENSKVKKGRAIYVSVYAK | -0.227

Sequence | soluble fraction (log2)
HMSLIDYLNELMNEKNITVAQVAKNSGIGEYVYKIFNGERNAKRDTLVAISFGMHLNFEETQLLLRIA | -0.682
HMTDLVVGLAGITLEPLRPAGKAEFNGSVVDVVSLGDYIEKSTAIQIVEIEGNRIVVHHGED | -0.0705
HMGKNYYEILGITKSASEEQVRKAFRGLAMEWHPDRNRSADSEERFKEINEAYQVLIDPKKRQMYDQYGR | 0.388
HMEKELVSDFASRISTARSSKGWNHAELGKRMAETVNVIKSAESGKPPTDSVVKKLERVLGITLMEV | -0.17
HMLVPWKSANLFKLVEPNFRLAERKIPMLPSADREKLQEIMSDMKDAIVDNDKMALMKLDEELTDFLFDFV | -1.22
HMVMAELRISVDRLQIGNYIKLPLSWRDHPFLLSSFMIKKEEQIQLIRQLRLKHVFIIPEKSDAPPKPA | -4.15
HMESPLNPTDVRRAAMDLLARREHGVEELRLKLKRRFGREEDFETIATEQLQRLVDEDLLSDTRF | -0.165
HMIEYYDDEELDVFKGRQSDNYTNKEIEQFAEVLHTMRQDEVKGWNRSLILRSINLPDSLKDEVIMLI | -0.672
HMNGSVLVTGGSVWIRAGASKETDGLGIVHKGDVLKRSGSDASGWRGVVYEGQNAFISAKYSSI | -0.916
HMTLVSALDQKTKDSAYYRGTYLAGKISAGKMTKQEAVADIMKNYDGNTAAMKVAAEKAGVSDLLSQTVL | 0.234
HMADLKVGFVHRAGSVLERELDDVLEALEMYRSALAIDPSHKPSLDALTRISQLADYREQAAEILEPLPR | -0.576
HMEFENIEQRKQYWSDLYRELKAGQDAYAKELKKGTEGYTQDELDILKEFTDEAKKQMEAAGVEATDEFAS | -0.187
HMDIHSEEYILGQNIRKYRLRLGWSQADLSNAVDIDRADISKYENGAKGIMSSTLLRKFAKALGVSMDALM | -2.76
HMRKPISQEIVDEVLKLAKNNPDWGYDRIAGVMKYLKYDVSATTVRHILDDNGIVPDPERRLR | 0.333
HMFSDDEINRLKARDSILVNLRDSEKQVWELYTDGKTVQNIANQLNKHKQSISATIINIKNKISRKQNMLK | -0.534
HMKITKIWFTADHIFGRDEEGKEYSQSLLWYPKLSAASDEERSQYTFGYDGIHWRSLDEDISFESF | -3.98
HMEVENAQLLARLTPQEHRVFERVVAGLSNREIGSEMDISIKTVEVHRARVMRKLEANSVAELVRFHIHN | -2.25
HMTEKIVFNIDGQTGRIDKILADFMTGTSRSQIQAWVKDGNLMVNDKAVKSNYKVQDGDLLELTIPEPEQ | -0.171
HMDNPYEVFIPNSYIGQRLDQTLASLFPQFSRSRLQNWLASGNLLVNGKIVKPKTKILGGEQINILDPYN | -0.339
HMSSPTAKATGSSVNIRKSASTGAAVLKRVEKGTVLEAVSISDGWVKVKYSGVTGYVSADYVKVSGL | -0.354
HMATKEQIKRIYGLGAGLGIVGKDKDDMLHELIFSITGKDSVKQLDDSEFKAVQAELINRMKLA | 0.132
HMPVISGQDLRVLIRDTGRERDQGISFLDDGTMVVVEDARRLIGQEVTATVTRVHQTQTGRIVFAHLSN | 0.0684
HMSDGIPDLRNLNFLSPQEGDYLNESDRVFGVTINGDGQAYPLRIVNAHEMVNDTLGGEPISLM | 0.16

Sequence | soluble fraction (log2)
HMEALNIEQKKVEIINVLLEKGKGKGRLSYKEISDQIDTVELDKDQMDELYETLMTNGIEIV | 0.114
HMRMTRQRKVILEELGKVYTHPTADEIYTMVKEKLPNISLGTVYRNLDLLAENNQVLKLETAGNIRRYD | -0.0847
HMETPEIPGLTPRQVEIMLLVGKGYSNKEIARFLTISPETVKTHLKEVFLRFGLRNRVEAIDFTRQNGL | -0.363
HMSGWIATGTATSTGNDVRVRSTPDATVNNNILLTLNKGNRFEIDGQTQNGFYHIKVNDTIGWISGLYVKE | -0.499
HMGPSLIRIASNPVAEVFIDGTRVGTTPFEMPADGTLKTVRLTAKDHDDLVVPLRSMKSMEIMLTLRRI | -0.589
HMEAEVIKTASDMADRNGLHNVSLKAIAENLGIRTPSLYNHIGSLDELLREIAHSGMRTMNE | 0.02
HMGHRQRRARARNRSMLEDIPGLGPKRRQQLLRQFGGLPQLMRAGVAELSQVPGISDSLARKIHAELHPES | -1.77
HMGAAVEVISLRYRSAAELLPIVRSLLSTEGKISADERTNSLIIVDSDEAVARVIHSLATLDT | -0.125
HMLSTNDYNENKNKLIKDFEIKFIIKHLKLNKGNVAATARSINFHPVSLRQKIAKLGIDVDEVMAG | -1.84
HMDDDIKNALDVLPEQYRMTVYYADVEGLAYKEIGAIMNTPIGTVMSRIHRGRSQLRVLLAAVAADR | -0.0377
HMPRNEIQRSVLNELVQWIKNNLAKKLTMQALSRFSGYSEWHLFRLFRHYFNMSPMAYIRQQRMQ | -0.265
HMNSNISYSEFLSQVEKGTINSVEITGNSIKGIYADGGEFITFSPGDPGLIDKLQRSDIEILATPPA | -0.104
HMTDLQNDIQAFNLKKMSYQHETKKLEEKRNPEKLEKLEQDIQALYLRIMENPNMRAFDSAKQALYLQIM | -0.773
HMDLPDFTSRERDILARVVQGDSNERIAASLGVSVSTVKTHIGNILRKTGQTNRVRLIVWATRHL | -1.72
HMSQIQIKLDQAIMQLPEKQRFVFMLRYFEELPYEKIAQITETSIGGAKANFHQALKKMQEIIQ | -2.96
HMPSPSTLAKVDPFLLVTNADSLLMARPDDSELRAAIITAHINLAKTNNSVDHYKEVLKIEPQNALANYN | 0.0175
HMESIEGMYKISLLRKQGNAYVIFEDENKEAVEHIFPEKPTALELGTKVIEMFEYKERYDGLI | -0.366
HMNPYLWQRVRLLFSNVGVINNSATVDLVFSAPKGVLTEDLANNFSAALVKKGKEELGLDDIKITISVIPN | -2.94
HMLPLGSNEYETAVIKHLASGVQDADEIQRLTGIDQTSLNTALTMLELAGTIRPLGNNHWTL | 0.167
HMPALELLVESKKPLLIHGEKIAEDINLFDREKYFIDDELIRIVKEFPSLKIILEHVSSKYGAD | -1.5
HMKDYKSALQELIQSGDKRVISYHTLKETGPSHNREFEAAVKLDGNIILGVGKGKTKKEAEQNAAHEALKK | 0.172
HMVSDAELTSQATTAITAYPGTSVEVKEGQAHLSGTFATEADKQAAIDALKKIQDVKDVHDMATV | 0.123
HMEVVRVEPGATVRDLGEALGVPPTRIIQILMGLGEMKTVTQTLSTEEIELVAEELGRRVEV | 0.135
